Target: iLID-YFP-SNAP (2×Strep-iLID-EYFP-SNAP)
Experiment: light-induced membrane recruitment in GUVs

With mCherry-SspB(micro) the half-time of dissociation from the membrane in the dark was 61.2 s and the half-time of dissociation in the dark was 41.8 s.

Source: PMC11507749
